From patent US7220554B2, “Methods for identifying inhibitors” (priority 2003, dated 2007) come the findings set out here.

Assay [1] relates to HIV-gpt(Δvif). As to the kind of experiment: Titers of HIV-gpt(Δvif) virions made in 293T or COS7 cells, infectivity in HeLa-CD4 cells. Format: cell-based, HIV-1. The note with it: for antiviral activity of chimera: titer of virions from 293T cells in the absence of Vif: FIG. 12A. From the text:
(§1) To analyze the antiviral activity of pcDNA3.1-APOBEC3G-Myc, human 293T and African green monkey COS7 cells were transiently cotransfected with pcDNA3.1-APOBEC3G-Myc in the presence of vectors for expression of HIV-gpt(wt) or HIV-gpt(Δvif) [these are derivatives of wild-type (wt) or vif deleted (Δvif) HIV-1 with the bacterial gpt gene replacing the viral env gene; Madani & Kabat, J. Virol. […] 74, 5982–5987, 2000]. Virions were subsequently harvested from the culture media and analyzed their infectivities in HeLa-CD4 (clone HI-J) cells. […] Similar results were obtained with owl monkey kidney cells. Thus, HIV-1 Vif neutralizes human APOBEC3G-Myc in both human and monkey cells.

In assay [2] the test system is HIV-gpt(wt). Briefly: Titers of HIV-gpt(wt) virions made in 293T or COS7 cells, infectivity in HeLa-CD4 cells. The note with it: producer cells 293T and COS7 cotransfected. The class given is cell-based, HIV-1.
Text: as §1

For assay [3], the system named is HIV-1 encoded proteins. Briefly: Immunoblotting of HIV-1-encoded proteins (Gag, Vif) in cotransfected producer cells. Format: cell-based. From the text:
Expression vectors: pHIV-gpt(wt) and its derivative pHIV-gpt(Δvif) were previously described (Madani & Kabat, J. Virol. 72, 10251–10255, 1998; Page et al., J Virol 64, 5270–5276, 1990; Madani & Kabat, J. Virol. 74, 5982–5987, 2000). pcDNA3.1-Vif was donated by D. Gabuzda (Dana-Farber Cancer Institute, Harvard, Boston, Mass.). Rev-dependent plasmids for expression of the Vif mutants Δ2, Δ5, Δ6, Δ7, Δ9, Δ10, Δ12 and Δ13 (Simon et al., J. Virol. 73, 2675–2681, 1999) were provided by M. Malim (Medical Research Council, Cambridge, UK) and were coexpressed with pHIV-gpt(Δvif). APOBEC3G cDNA was cloned from H9 cells (nonpermissive) by reverse transcriptase-PCR (Barnes, Proc. Natl. Acad. Sci. USA 91, 2216–2220, 1994; Sambrook et al., Molecular Cloning. A Laboratory Manual, Chapter 14, 14.5–14.34., CSHL Press, Cold Spring Harbor, 1989) using primers complementary to the 5′ and 3′ ends of APOBEC3G coding region (Sheehy et al., Nature 418, 646–650, 2002) (upstream primer, 5′-[…]-3′ (SEQ ID NO: 15) containing an XhoI restriction site [underlined]; downstream primer, 5′-[…]-3′ (SEQ ID NO: 16) containing a SfuI restriction site [underlined]). […] Virus-containing fractions were detected by immunoblotting using HIV Immunoglobulin serum (AIDS Research & Reference Reagent Program, Division of AIDS, NIAID, NIH: contributed by NABI and NHLBI). […]
On the technique in general: A western blot detects proteins with antibodies after separation by electrophoresis.

B1: APOBEC3G-luciferase (protein)
chain: MKPHFRNTVERMYRDTFSYNFYNRPILSRRNTVWLCYEVKTKGPSRPPLDAKIFRGQVYSELKYHPEMRFFHWFSKWRKLHRDQEYEVTWYISWSPCTKCTRDMATFLAEDPKVTLTIFVARLYYFWDPDYQEALRSLCQKRDGPRATMKIMNYDEFQHCWSKFVYSQRELFEPWNNLPKYYILLHIMLGEILRHSMDPPTFTFNFNNEPWVRGRHETYLCYEVERMHNDTWVLLNQRRGFLCNQAPHKHGFLEGRHAELCFLDVIPFWKLDLDQDYRVTCFTSWSPCFSCAQEMAKFISKNKHVSLCIFTARIYDDQGRCQEGLRTLAEAGAKISIMTYSEFKHCWDTFVDHQGCPFQPWDGLDEHSQDLSGRLRAILQNQENKLSMVTDAKNIKKGPAPFYPLEDGTAGEQLHKAMKRYALVPGTIAFTDAHIEVDITYAEYFEMSVRLAEAMKRYGLNTNHRIVVCSENSLQFFMPVLGALFIGVAVAPANDIYNERELLNSMGISQPTVVFVSKKGLQKILNVQKKLPIIQKIIIMDSKTDYQGFQSMYTFVTSHLPPGFNEYDFVPESFDRDKTIALIMNSSGSTGLPKGVALPHRTACVRFSHARDPIFGNQIIPDTAILSVVPFHHGFGMFTTLGYLICGFRVVLMYRFEEELFLRSLQDYKIQSALLVPTLFSFFAKSTLIDKYDLSNLHEIASGGAPLSKEVGEAVAKRFHLPGIRQGYGLTETTSAILITPEGDDKPGAVGKVVPFFEAKVVDLDTGKTLGVNQRGELCVRGPMIMSGYVNNPEATNALIDKDGWLHSGDIAYWDEDEHFFIVDRLKSLIKYKGYQVAPAELESILLQHPNIFDAGVAGLPDDDAGELPAAVVVLEHGKTMTEKEIVDYVASQVTTAKKLRGGVVFVDEVPKGLTGKLDARKIREILIKAKKGGKIAV
modifications: Synthetic construct human APOBEC3G fused to luciferase
Turning to B1, in assay [1], the “antiviral activity of chimera: titer of virions from 293T cells in the absence of Vif” value is recorded as “antiviral activity only in the absence of Vif”.

B2: APOBEC3G-Myc: fusion of human APOBEC3G with Myc epitope and 6×His tag, SEQ ID NO: 2 (protein)
chain: MKPHFRNTVERMYRDTFSYNFYNRPILSRRNTVWLCYEVKTKGPSRPPLDAKIFRGQVYSELKYHPEMRFFHWFSKWRKLHRDQEYEVTWYISWSPCTKCTRDMATFLAEDPKVTLTIFVARLYYFWDPDYQEALRSLCQKRDGPRATMKIMNYDEFQHCWSKFVYSQRELFEPWNNLPKYYILLHIMLGEILRHSMDPPTFTFNFNNEPWVRGRHETYLCYEVERMHNDTWVLLNQRRGFLCNQAPHKHGFLEGRHAELCFLDVIPFWKLDLDQDYRVTCFTSWSPCFSCAQEMAKFISKNKHVSLCIFTARIYDDQGRCQEGLRTLAEAGAKISIMTYSEFKHCWDTFVDHQGCPFQPWDGLDEHSQDLSGRLRAILQNQENFEQKLISEEDLNMHTGHHHHHH
modifications: Synthetic construct human APOBEC3G fused to Myc
On to B2, for which, in assay [1], the “antiviral activity of chimera: titer of virions from 293T cells in the absence of Vif” value is recorded as “low titer”. Further, in assay [1] (producer cells 293T and COS7 cotransfected), the “decrease of titers of HIV-gpt(Δvif) virions” value is 25–100 fold. Further, the “effect on titers of HIV-gpt(wt)” value in assay [2] is recorded as “no effect”. Moreover, the “synthesis of HIV-1 encoded proteins in the producer cells or their packaging into virions” value in assay [3] is on record as “no significant or reproducible effect”. Further, in assay [3] (FIGS. 3A and 3B), the “expression of Vif” value is “no effect”.
